Measurements taken from patent publication US20100330100A1.
Like-named read-outs stand apart in the source and are kept apart here.

Assays:
Experiment in all cases: whole cell ELISA on immobilized PA103 strain, 50 µg/well IgG
[1] = molecular target: PA4710 protein on the cell surface of Pseudomonas aeruginosa PA103 strain (Pseudomonas aeruginosa)
[2] = molecular target: PA4710 protein on the cell surface of Pseudomonas aeruginosa PA103 strain (Pseudomonas aeruginosa); remark: listed apart in the source
[3] = molecular target: PA4710 protein on the cell surface of Pseudomonas aeruginosa PA103 strain (Pseudomonas aeruginosa); remark: listed apart in the source

Substance: negative control IgG fraction purified from control rat sera obtained by administering only adjuvant (antibody)
- absorbance at 450 nm [1]: 0.28 absorbance
- absorbance at 450 nm [2]: 0.244 absorbance
- absorbance at 450 nm [3]: 0.092 absorbance
